B1: N139K (protein)
chain: MQLRNPELHLGCALALRFLALVSWDIPGARALDNGLARTPTMGWLHWERFMCNLDCQEEPDSCISEKLFMEMAELMVSEGWKDAGYEYLCIDDCWMAPQRDSEGRLQADPQRFPHGIRQLANYVHSKGLKLGIYADVGKKTCAGFPGSFGYYDIDAQTFADWGVDLLKFDGCYCDSLENLADGYKHMSLALNRTGRSIVYSCEWPLYMWPFQKPNYTEIRQYCNHWRNFADIDDSWKSIKSILDWTSFNQERIVDVAGPGGWNDPDMLVIGNFGLSWNQQVTQMALWAIMAAPLFMSNDLRHISPQAKALLQDKDVIAINQDPLGKQGYQLRQGDNFEVWERPLSGLAWAVAMINRQEIGGPRSYTIAVASLGKGVACNPACFITQLLPVKRKLGFYEWTSRLRSHINPTGTVLLQLENTMQMSLKDLL
B2: K140E (protein)
chain: B1 chain with K139N, K140E
B3: G144R (protein)
chain: B1 chain with K139N, G144R
B4: N139Y (protein)
chain: B1 chain with K139Y
B5: T141S (protein)
chain: B1 chain with K139N, T141S
B6: F145Y (protein)
chain: B1 chain with K139N, F145Y
B7: G144C (protein)
chain: B1 chain with K139N, G144C
B8: K140N (protein)
chain: B1 chain with K139N, K140N
B9: A143E (protein)
chain: B1 chain with K139N, A143E
B10: F145V (protein)
chain: B1 chain with K139N, F145V
B11: G144S (protein)
chain: B1 chain with K139N, G144S
B12: K140I (protein)
chain: B1 chain with K139N, K140I
B13: K140Q (protein)
chain: B1 chain with K139N, K140Q
B14: A143G (protein)
chain: B1 chain with K139N, A143G
B15: F145C (protein)
chain: B1 chain with K139N, F145C
B16: F145L (protein)
chain: B1 chain with K139N, F145L
B17: G144A (protein)
chain: B1 chain with K139N, G144A
B18: K140R (protein)
chain: B1 chain with K139N, K140R

Residue numbers refer to the chain shown, from its start. Names may count otherwise.

Here are results for 18 molecules from patent publication US11833164B2, “Methods of treating Fabry disease in patients having a mutation in the GLA gene” (Amicus Therapeutics, Inc., priority 2019, dated 2023).

The first experiment relates to mutant form of α-Gal A expressed in HEK-293 cells. Kind of experiment: HEK assay (GLP HEK / Migalastat Amenability Assay): α-Gal A activity in lysates of transiently transfected HEK-293 cells incubated with or without 10 μM migalastat. Particulars: 10 μM migalastat versus baseline. The class given is cell-based, human. In outline: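 HEK-293 cells transiently transfected with mutant α-Gal A and incubated with or without 10 μM migalastat; lysate activity given as nmol free 4-MU released per mg protein per hour. Values are mean±SEM.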
Take B1: the “Absolute increase (% WT)” value came to 33.8 % WT.

Take B2: the “Absolute increase (% WT)” value came out at 59.5 % WT.

Turning to B3, the “Absolute increase (% WT)” value is 37.7 % WT.

B4: the “Absolute increase (% WT)” value was found to be 11.7 % WT.

For the molecule B5, the “Absolute increase (% WT)” value is 34.4 % WT.

Consider B6, for which the “Absolute increase (% WT)” value was determined as 23.5 % WT.

For the molecule B7, the “Absolute increase (% WT)” value is listed as 7.1 % WT.

B8: the “Absolute increase (% WT)” value was 40.3 % WT.

As to B9, the “Absolute increase (% WT)” value is 11.4 % WT.

With B10, the “Absolute increase (% WT)” value was 5.7 % WT.

Regarding B11, the “Absolute increase (% WT)” value worked out at 30.4 % WT.

As for B12, the “Absolute increase (% WT)” value worked out at 49.4 % WT.

On to B13, for which the “Absolute increase (% WT)” value is reported as 42.5 % WT.

As for B14, the “Absolute increase (% WT)” value was 51.9 % WT.

Consider B15, for which the “Absolute increase (% WT)” value turned out to be 25.7 % WT.

In the case of B16, the “Absolute increase (% WT)” value was 61.8 % WT.

As to B17, the “Absolute increase (% WT)” value was 15.5 % WT.

With B18, the “Absolute increase (% WT)” value was 39.4 % WT.

The same experiment, now with this note: 10 μM migalastat α-Gal A activity relative to baseline.
Molecule B1 had a Relative increase of 1.3.

Consider B2, for which the Relative increase worked out at 1.8.

With B3, the Relative increase is reported as 2.0.

B4: the Relative increase was found to be 1.2.

In turn, B5 yielded a Relative increase of 1.5.

B6 had a Relative increase of 1.2.

As to B7, the Relative increase was 3.9.

Turning to B8, the Relative increase worked out at 1.4.

As for B9, the Relative increase is given as 1.5.

In the case of B11, the Relative increase came to 1.6.

For B12, the Relative increase is listed as 2.1.

The molecule B13 gave a Relative increase of 1.4.

For the molecule B14, the Relative increase was determined as 1.8.

B15: the Relative increase came out at 14.4.

Molecule B16 displayed a Relative increase of 5.5.

As for B17, the Relative increase is given as 1.3.

In turn, B18 yielded a Relative increase of 1.3.

Still in this experiment, the particulars now being: 10 μM migalastat, 5 days; percentage of baseline wild-type α-Gal A activity; mean ± SEM.
Turning to B1, the “10 μM migalastat α-Gal A activity (% WT)” value is recorded as 127.4 ± 8.8 % WT.

In the case of B2, the “10 μM migalastat α-Gal A activity (% WT)” value was 132.1 ± 9 % WT.

Regarding B3, the “10 μM migalastat α-Gal A activity (% WT)” value is 73.4 ± 6.5 % WT.

Consider B4, for which the “10 μM migalastat α-Gal A activity (% WT)” value was 64 ± 5.2 % WT.

As for B5, the “10 μM migalastat α-Gal A activity (% WT)” value was 98.2 ± 9.1 % WT.

As to B6, the “10 μM migalastat α-Gal A activity (% WT)” value is given as 131.7 ± 5.1 % WT.

Turning to B7, the “10 μM migalastat α-Gal A activity (% WT)” value turned out to be 9.5 ± 0.8 % WT.

For the molecule B8, the “10 μM migalastat α-Gal A activity (% WT)” value amounted to 154.1 ± 11.1 % WT.

Take B9: the “10 μM migalastat α-Gal A activity (% WT)” value is listed as 37.3 ± 1.8 % WT.

In the case of B10, the “10 μM migalastat α-Gal A activity (% WT)” value is recorded as 5.7 ± 0.6 % WT.

In the case of B11, the “10 μM migalastat α-Gal A activity (% WT)” value came out at 78 ± 5.6 % WT.

With B12, the “10 μM migalastat α-Gal A activity (% WT)” value was determined as 92.1 ± 7.1 % WT.

Turning to B13, the “10 μM migalastat α-Gal A activity (% WT)” value is listed as 165.7 ± 9.7 % WT.

Regarding B14, the “10 μM migalastat α-Gal A activity (% WT)” value is reported as 119.7 ± 5.9 % WT.

For the molecule B15, the “10 μM migalastat α-Gal A activity (% WT)” value was found to be 27.8 ± 0.8 % WT.

On to B16, for which the “10 μM migalastat α-Gal A activity (% WT)” value is on record as 75.7 ± 2.9 % WT.

In the case of B17, the “10 μM migalastat α-Gal A activity (% WT)” value is listed as 60.4 ± 2.8 % WT.

Turning to B18, the “10 μM migalastat α-Gal A activity (% WT)” value came to 180.9 ± 15 % WT.

The experiment is the same for the next values; noted with them: absence of migalastat; mean activity below the limit of detection (<142 nmol/mg/hr).
Consider B10, for which the “Baseline α-Gal A activity (nmol/mg/hr)” value was “BLD (“BLD” indicates that the mean α-Gal A activity was below the limit of detection (<142 nmol/mg/hr))”.

The same experiment, now with this note: absence of migalastat; percentage of baseline wild-type α-Gal A activity; mean ± SEM.
As for B1, the “Baseline α-Gal A activity (% WT)” value came to 93.6 ± 5.8 % WT.

B2: the “Baseline α-Gal A activity (% WT)” value turned out to be 72.6 ± 5.8 % WT.

Regarding B3, the “Baseline α-Gal A activity (% WT)” value worked out at 35.7 ± 2.8 % WT.

In the case of B4, the “Baseline α-Gal A activity (% WT)” value stood at 52.3 ± 3.8 % WT.

In the case of B5, the “Baseline α-Gal A activity (% WT)” value is 63.8 ± 7.1 % WT.

Consider B6, for which the “Baseline α-Gal A activity (% WT)” value was 108.1 ± 6.2 % WT.

Regarding B7, the “Baseline α-Gal A activity (% WT)” value was determined as 2.5 ± 0.2 % WT.

As to B8, the “Baseline α-Gal A activity (% WT)” value turned out to be 113.8 ± 9.5 % WT.

B9: the “Baseline α-Gal A activity (% WT)” value came out at 25.9 ± 1.5 % WT.

With B11, the “Baseline α-Gal A activity (% WT)” value turned out to be 47.6 ± 2.4 % WT.

As for B12, the “Baseline α-Gal A activity (% WT)” value is reported as 42.7 ± 3.3 % WT.

Consider B13, for which the “Baseline α-Gal A activity (% WT)” value worked out at 123.2 ± 12.1 % WT.

As to B14, the “Baseline α-Gal A activity (% WT)” value amounted to 67.8 ± 3.4 % WT.

B15: the “Baseline α-Gal A activity (% WT)” value stood at 2.1 ± 0.2 % WT.

As for B16, the “Baseline α-Gal A activity (% WT)” value was found to be 13.9 ± 0.8 % WT.

Regarding B17, the “Baseline α-Gal A activity (% WT)” value was determined as 44.9 ± 3.6 % WT.

As to B18, the “Baseline α-Gal A activity (% WT)” value stood at 141.5 ± 12 % WT.

Staying with this experiment, now noted: lysates of HEK-293 cells transfected with the mutant form, incubated 5 days in the absence of migalastat; mean ± SEM.
B1: the “Baseline α-Gal A activity” value is 33797 ± 2244 nmol/mg/h.

Regarding B2, the “Baseline α-Gal A activity” value was 26053 ± 1925 nmol/mg/h.

In the case of B3, the “Baseline α-Gal A activity” value came to 10574 ± 838 nmol/mg/h.

For the molecule B4, the “Baseline α-Gal A activity” value was found to be 19998 ± 1682 nmol/mg/h.

As to B5, the “Baseline α-Gal A activity” value came to 22602 ± 2254 nmol/mg/h.

Regarding B6, the “Baseline α-Gal A activity” value came to 41985 ± 2942 nmol/mg/h.

With B7, the “Baseline α-Gal A activity” value is 759 ± 69 nmol/mg/h.

Consider B8, for which the “Baseline α-Gal A activity” value turned out to be 40575 ± 2928 nmol/mg/h.

As to B9, the “Baseline α-Gal A activity” value came to 7681 ± 439 nmol/mg/h.

Regarding B11, the “Baseline α-Gal A activity” value turned out to be 14190 ± 967 nmol/mg/h.

On to B12, for which the “Baseline α-Gal A activity” value amounted to 15415 ± 1294 nmol/mg/h.

B13: the “Baseline α-Gal A activity” value turned out to be 42995 ± 3236 nmol/mg/h.

Turning to B14, the “Baseline α-Gal A activity” value turned out to be 20419 ± 1260 nmol/mg/h.

Regarding B15, the “Baseline α-Gal A activity” value was determined as 768 ± 54 nmol/mg/h.

On to B16, for which the “Baseline α-Gal A activity” value is 5455 ± 412 nmol/mg/h.

As to B17, the “Baseline α-Gal A activity” value stood at 20304 ± 1590 nmol/mg/h.

In the case of B18, the “Baseline α-Gal A activity” value amounted to 50348 ± 3558 nmol/mg/h.

The experiment is the same for the next values; noted with them: lysates of HEK-293 cells transfected with the mutant form, incubated 5 days with 10 μM migalastat; mean ± SEM.
Turning to B1, the “10 μM migalastat α-Gal A activity” value amounted to 45090 ± 2667 nmol/mg/h.

Take B2: the “10 μM migalastat α-Gal A activity” value was found to be 46670 ± 2685 nmol/mg/h.

As to B3, the “10 μM migalastat α-Gal A activity” value came to 21406 ± 1764 nmol/mg/h.

Consider B4, for which the “10 μM migalastat α-Gal A activity” value was determined as 24303 ± 2079 nmol/mg/h.

As to B5, the “10 μM migalastat α-Gal A activity” value stood at 34806 ± 2770 nmol/mg/h.

For B6, the “10 μM migalastat α-Gal A activity” value stood at 51524 ± 2970 nmol/mg/h.

On to B7, for which the “10 μM migalastat α-Gal A activity” value was 2988 ± 262 nmol/mg/h.

Turning to B8, the “10 μM migalastat α-Gal A activity” value was 54681 ± 3030 nmol/mg/h.

As for B9, the “10 μM migalastat α-Gal A activity” value was found to be 11458 ± 884 nmol/mg/h.

Take B10: the “10 μM migalastat α-Gal A activity” value stood at 2359 ± 333 nmol/mg/h.

Consider B11, for which the “10 μM migalastat α-Gal A activity” value is 23153 ± 1847 nmol/mg/h.

For B12, the “10 μM migalastat α-Gal A activity” value was 32440 ± 2092 nmol/mg/h.

As to B13, the “10 μM migalastat α-Gal A activity” value turned out to be 59162 ± 3600 nmol/mg/h.

For the molecule B14, the “10 μM migalastat α-Gal A activity” value came to 36821 ± 2997 nmol/mg/h.

B15: the “10 μM migalastat α-Gal A activity” value stood at 11083 ± 678 nmol/mg/h.

Regarding B16, the “10 μM migalastat α-Gal A activity” value is 29794 ± 1799 nmol/mg/h.

As to B17, the “10 μM migalastat α-Gal A activity” value is 27268 ± 1039 nmol/mg/h.

In the case of B18, the “10 μM migalastat α-Gal A activity” value turned out to be 62820 ± 3401 nmol/mg/h.
